In series [1] the target is ECTS truncated-ThaPK (Thermoplasma acidophilum pyruvate kinase lacking the extra C-terminal sequence) (Thermoplasma acidophilum) (UniProt P32044). Kind of series: native gel or EMSA; 1D Blue Native PAGE, linear 4-18% acrylamide gradient, 4 °C, 50 µg protein per well; bands excised and resolved by 2D SDS-PAGE; masses from regression on standards, triplicate gels.
The next series concerns the target T1, WT-ThaPK (Thermoplasma acidophilum, UniProt P32044).
T1 construct: gene Ta0896; full length (1635 bp gene, 544 residues), N-terminal His6 tag and thrombin site (20 residues) kept, pET15b, E. coli BL21(DE3) Codon Plus-RIL
Kind of series: LDH/NADH coupled assay, dead-end inhibition, global fit. Format: biochemical. The text has this: LDH/NADH coupled assay, dead-end inhibition, global fit on WT-ThaPK

Series [2] deals with the molecule itself. Kind of series: SEC; Superdex 200 (10/300), 50 mM HEPES pH 7.5, 150 mM NaCl, 500 µg of enzyme loaded, calibrated with BIORAD gel filtration standards.

“And” between values parts separate entries of the source, which are not always exact repeats. Equal values may be shown once. Read-outs that look alike come from different tables or passages of the source.

For “ECTS truncated-ThaPK (Thermoplasma acidophilum pyruvate kinase lacking the extra C-terminal sequence) (from UniProt P32044 1-450) (domain or fragment)”, the stoichiometry N in series [1] was 2 and 3.
For the molecule `O=C(O)C(=O)O` [oxalate], the Ki on WT-ThaPK (read-out: Ki (Oxalate)) came out at 44 ± 1 µM.
For `Nc1ncnc2c1ncn2[C@@H]1O[C@H](COP(=O)(O)O)[C@@H](O)[C@H]1O` [AMP], the Ki on WT-ThaPK (read-out: Ki (AMP)) was 3300 ± 300 µM.

B1: Thermoplasma acidophilum pyruvate kinase, wild type (WT-ThaPK) (enzyme, UniProt P32044 1-544, looked up)
chain: MKTKIVATIGPASSSPEIMKQMIDNGLSLVRINSAHADIKDVSKITQMVRSINRDVGIMIDLKGPELRTGEFAGGTLKISSGKDYVMGKDIVLNNMNVLSAVQVGDRILMSDGEVSFEVESTDPFTIRALNDGVLRDRSRVNIPGRFIELGTITDRDRAFIREGIADGVDFFALSFVQKSENVDSLRDFVIDSGGDQYIISKIETKSGLDNIEEIVKSSDGIMVARGDLGVELPLKEVVLAQKHIIKTAHEDGDFTIVATQVLESMVNNSSPTRAEISDITNAIIDNADALMLSEESAIGKYPVQAVRTLKEVSDYVEDKVSFDSSYYFKGNTIAYSVARAAKILSDDIKSDGIVALTHTGSTVRMISSLRPKAMVYAATVSESLARKLNIYFGVLPLHMEGNAEDLSFSEIMEYIVRSGRFADGSKLVMTSGDPYFTFGGTNDVKVAVVGKFIGRGYSFGDSLSGTATYGTKGDILMSEDGRIPGTDFRAFIFTSDIKPSLMSSLKGKTVVTKARLVRQIKEGERIYIDGNTGIILMASPDQK
notes: pyruvate kinase of Thermoplasma acidophilum; synthetic gene of 1635 bp cloned NdeI/BamHI in pET15b; last residue K544; monomer 59,147.48 Da plus 20 extra residues (His6 tag and thrombin site, 2193.26 Da) that thrombin could not cleave; The 20 additional N-terminal residues from pET15b (His6 tag and thrombin cleavage site) stayed on the protein in all experiments; also called wild-type enzyme; …
With B1, the “stoichiometry N” value in series [2] is 4.

Values taken from article PMC12428139, “The Functional State of Thermoplasma acidophilum Pyruvate Kinase Relies on an Extra Carboxyl-Terminal Sequence” (International Journal of Molecular Sciences, 2025).
